# T1: human fibrinogen (human, UniProt P02671-2 20-644; P02675 31-491; P02679-2 27-437)
# T1 construct: fibrinogen A-alpha chain, human; fibrinogen B-beta chain, human; fibrinogen gamma chain, human; Coated on MaxSorb ELISA plates; also called Fbgn; source: bought: Sigma; copies: 2 + 2 + 2
# T1 sequence (looked up) 1: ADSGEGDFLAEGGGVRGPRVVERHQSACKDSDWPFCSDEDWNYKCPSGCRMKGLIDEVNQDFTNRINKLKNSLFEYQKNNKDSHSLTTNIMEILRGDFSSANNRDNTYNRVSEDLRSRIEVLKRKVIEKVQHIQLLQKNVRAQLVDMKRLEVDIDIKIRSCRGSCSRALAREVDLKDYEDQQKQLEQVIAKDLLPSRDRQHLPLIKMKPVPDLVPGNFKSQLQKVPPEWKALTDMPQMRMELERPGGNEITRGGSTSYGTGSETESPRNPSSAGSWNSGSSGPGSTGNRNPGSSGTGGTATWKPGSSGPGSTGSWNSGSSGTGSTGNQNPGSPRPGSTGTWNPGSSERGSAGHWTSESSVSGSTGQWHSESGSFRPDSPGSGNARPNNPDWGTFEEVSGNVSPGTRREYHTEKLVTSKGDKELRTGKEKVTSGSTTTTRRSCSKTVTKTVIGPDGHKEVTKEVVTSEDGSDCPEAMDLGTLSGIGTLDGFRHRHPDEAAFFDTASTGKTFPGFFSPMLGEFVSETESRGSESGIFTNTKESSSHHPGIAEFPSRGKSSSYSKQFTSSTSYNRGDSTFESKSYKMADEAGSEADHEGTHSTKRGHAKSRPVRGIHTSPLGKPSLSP
# T1 sequence (looked up) 2: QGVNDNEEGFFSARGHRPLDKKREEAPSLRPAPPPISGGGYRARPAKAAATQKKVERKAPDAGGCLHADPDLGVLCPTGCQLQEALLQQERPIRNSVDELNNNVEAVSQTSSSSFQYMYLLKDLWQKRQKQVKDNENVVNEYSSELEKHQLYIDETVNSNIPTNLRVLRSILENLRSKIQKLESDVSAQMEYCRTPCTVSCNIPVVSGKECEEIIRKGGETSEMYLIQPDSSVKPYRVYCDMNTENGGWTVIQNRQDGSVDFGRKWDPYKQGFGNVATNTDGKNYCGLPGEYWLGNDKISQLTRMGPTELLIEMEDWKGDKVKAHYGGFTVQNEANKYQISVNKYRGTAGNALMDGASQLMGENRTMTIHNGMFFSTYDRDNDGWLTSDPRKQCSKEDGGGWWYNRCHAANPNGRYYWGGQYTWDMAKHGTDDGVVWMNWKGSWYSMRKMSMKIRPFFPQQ
# T1 sequence (looked up) 3: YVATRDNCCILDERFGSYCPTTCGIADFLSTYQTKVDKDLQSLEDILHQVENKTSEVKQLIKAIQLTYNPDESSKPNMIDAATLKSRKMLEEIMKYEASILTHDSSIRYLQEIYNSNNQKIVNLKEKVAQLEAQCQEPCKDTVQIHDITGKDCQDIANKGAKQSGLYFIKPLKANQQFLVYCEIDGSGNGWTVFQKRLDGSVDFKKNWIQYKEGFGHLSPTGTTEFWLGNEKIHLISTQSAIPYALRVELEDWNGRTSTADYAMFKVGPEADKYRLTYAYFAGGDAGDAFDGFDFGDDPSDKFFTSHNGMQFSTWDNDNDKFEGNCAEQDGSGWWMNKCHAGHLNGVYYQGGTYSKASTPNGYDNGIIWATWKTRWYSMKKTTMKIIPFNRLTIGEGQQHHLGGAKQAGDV
# B1: clumping factor A (ClfA), purified recombinant (natural protein)
# chain: not shown
# notes: clumping factor A (ClfA) of Staphylococcus aureus; strain Newman is the strain worked with; it would add an N-terminal His tag (surmised); also called His6-ClfA; source: E. coli BL21(DE3), purified (Ni-NTA)
# Molecular target: T1, human fibrinogen
# Test: ELISA; human fibrinogen coated overnight on MaxSorb 96-well plates, wells treated with PBS (fibrinogen) or 100 nM alpha-thrombin in 1% sodium-citrate/PBS for one hour at room temperature (fibrin); ClfA in 1% sodium-citrate added at increasing concentrations for one hour; bound ClfA detected with polyclonal anti-ClfA and anti-rabbit-HRP; non-linear regression, one-site saturation
# Conditions: both partners purified
binder,measurement,value
B1,Kd,395 ± 51.8 nM

# — paper PMC3197598, “Preventing Staphylococcus aureus Sepsis through the Inhibition of Its Agglutination in Blood” (PLoS Pathogens, 2011)
